The values that follow come from patent US8835136B2, “Engineered amine dehydrogenases and methods of use thereof” (Georgia Tech Research Corporation, priority 2012, dated 2014).

Several values for one entry are separate records, joined by “and”; a condition that tells them apart may be missing. Equal entries are not always repeated.

Series [1] is described as follows: Deamination of L-Phe. Format: biochemical. Particulars: 0.1 M Glycine pH 10.0, 1 mM NAD+, 20 mM L-Phe, 25° C. Here is the method:
(§1) The wild-type PheDH from B. badius was characterized to ensure proper expression and folding prior to mutation. […] KM values were determined for the substrates when possible, and corresponded well to those values found in literature (110). Additionally, the K1 value of ammonia was determined to be 5.0 M. The KM of phenylpyruvate could not be determined due to its high absorbance at the analytical wavelength. The wild-type enzyme was determined to be properly folded and active.

The nature of series [2]: Oxidative deamination, spectrophotometric assay at 340 nm. The settings on record: 0.1M Glycine pH 10.0, 1 mM NAD+, 25° C. Format: biochemical. Here is the method:
Activity of purified proteins was measured using a spectrophotometric assay at 340 nm, corresponding to the cofactor nicotinamide adenine dinucleotide (NADH, ε340=6220 M^−1 cm^−1) (Dawson, et al., Clarendon Press, (1989). For reductive amination, reactions took place in 500 mM NH4Cl/NH4OH at pH 9.6, with 200 μM NADH and 20 mM of the ketone substrate, unless otherwise specified. […] All reactions were performed at 25° C. unless otherwise specified. Enzyme was added in 10 μL aliquots in dilute concentrations. Enzyme concentrations varied upon activity levels with the substrate present, but were dilute enough to ensure linear conversion kinetics over the analytical time period (10 min to 30 min). Specific activities were then calculated from the stoichiometric conversion of cofactor as determine by the change in absorbance at 340 nm over time.

A short description of series [3]: Kinetic parameters for ammonia (PheDH / PheDH-AmDH). Format: biochemical. Particulars: amination of phenylpyruvate; read-out: KM, NH3. Here is the method: as §1
Kinetic parameters, kcat and KM, were determined for the enzyme and each of the reductive amination substrates; respectively. […] The kcat value for this AmDH enzyme with all three substrates saturated in aqueous NH4Cl/NH4OH buffer at pH 9.6 was 6.85 s^−1 at 25° C. This represents a near 15-fold enhancement above the maximum observed kcat of 0.46 s^−1 of the previously developed LeuDH-AmDH.

A short description of series [4]: Reductive amination, spectrophotometric assay at 340 nm. Format: biochemical. Particulars: 500 mM NH4Cl/NH4OH pH 9.6, 200 μM NADH, 25° C. Here is the method:
Activity of purified proteins was measured using a spectrophotometric assay at 340 nm, corresponding to the cofactor nicotinamide adenine dinucleotide (NADH, ε340=6220 M^−1 cm^−1) (Dawson, et al., Clarendon Press, (1989). For reductive amination, reactions took place in 500 mM NH4Cl/NH4OH at pH 9.6, with 200 μM NADH and 20 mM of the ketone substrate, unless otherwise specified. For oxidative deamination, reactions took place in 0.1 M NaHCO3/Na2CO3 buffer at pH 10.0, with 1 mM NAD+ with 10 mM of the amine substrate of interest. All reactions were performed at 25° C. unless otherwise specified. Enzyme was added in 10 μL aliquots in dilute concentrations. Enzyme concentrations varied upon activity levels with the substrate present, but were dilute enough to ensure linear conversion kinetics over the analytical time period (10 min to 30 min). Specific activities were then calculated from the stoichiometric conversion of cofactor as determine by the change in absorbance at 340 nm over time.

Series [5] can be described thus: Amination of phenylpyruvate. Format: biochemical. Particulars: 500 mM NH4Cl/NH4OH pH 9.6, 200 μM NADH, 5 mM phenylpyruvate, 25° C. Here is the method: as §1
Series [6] in a line: C1-AmDH amine activity measured photometrically. Format: biochemical. As for the experimental part: Activities were also measured photometrically with 100 mM (+/−) methylhenzylamine (0.58 U/mg) as well as 100 mM (R)-methylbenzylamine. (0.98 U/mg), 50 mM (R,S)-adamanylethlamine (0.04 U/mg) and determined the enantioselectivity for this enzyme to be (R).
Series [7] is described as follows: C1-AmDH amination at 60° C. in 4 M ammonium formate buffer. Format: biochemical. Particulars: 20 mM. As for the experimental part:
(§2) All ketone substrates for the amination direction were measured at 20 mM and dissolved at 60° C. in 4 M ammonium formate buffer. Enzyme specificity was measured at 60° C. for 5 min. with NADH as the cofactor at 340 nm.

Series [8] can be described thus: Temperature vs activity profile for C1-AmDH. Format: biochemical. As for the experimental part:
The temperature activity profile was determined over a wide range until the limits of the instrument were reached. […] In contrast it is barely active between 20-30° C., so all measurements for activity were determined routinely at 60° C. Product conversions were done at 40° C. and 50° C., due to the temperature limits for regeneration enzyme, FDH. Temperature activity profiles were determined for pFPA and acetophenone (FIGS. 22A and 22B).

The nature of series [9]: C1-AmDH amination at 60° C. in 4 M ammonium formate buffer. Format: biochemical. As for the experimental part:
as §2
(§3) The values for acetophenone, pFPA; NADH and NH3 were determined and are summarized in Table XX, all measured at 60° C.

Series [10] is described as follows: Substrate conversion using C1-AmDH and cb-FDH, chiral GC. Format: biochemical. Here is the method: Product formation was characterized for two substrates. The test assay utilized the C1-AmDH in 24 h conversion at 40° C. with cofactor regeneration in a biphasic solvent system with heptane as the organic layer and 5 M ammonium formate as the aqueous layer. Conversions were also carried out at 50° C., which is the upper limit for the cofactor regeneration enzyme FDH.
This is not a quantitative evaluation, since amines are more water soluble than their ketone counterparts and only the organic layer was used for chiral gas chromatography (GC). The peaks were compared to the corresponding standard amines and both determined to be R-specific (FIGS. 24A and 24B).

Series [11] in a line: C1-AmDH kinetic values. Format: biochemical. Particulars: 60° C. As for the experimental part: as §3
A short description of series [12]: T50 after 30 min (T50^30) of C1-AmDH. Format: physicochemical. Here is the method: The T50 (after 30 min—T50^30) was also determined for the C1-AmDH. The T50^30 value was determined to be dependent on the buffer, in PBS, the enzyme was staple for 30 min at 50 C, at 60 C an beyond the enzyme deactivated within the timescale of the experiment. In the presence of 4M ammonium formate buffer we found the T50^30 value was determined to be at 70 C.

B1: Wild Type: PheDH from Bacillus badius, SEQ ID NO:1 (protein, listed as Bacillus badius)
chain: SLVEKTSIIKDFTLFEKMSEHEQVVFCNDPATGLRAIIAIHDTTLGPALGGCRMQPYNSVEEALEDALRLSKGMTYKCAASDVDFGGGKAVIIGDPQKDKSPELFRAFGQFVDSLGGRFYTGTDMGTNMEDFIHAMKETNCIVGVPEAYGGGGDSSIPTAMGVLYGIKATNKMLFGKDDLGGVTYAIQGLGKVGYKVAEGLLEEGAHLFVTDINEQTLEAIQEKAKTTSGSVTVVASDEIYSQEADVFVPCAFGGVVNDETMKQFKVKAIAGSANNQLLTEDHGRHLADKGILYAPDYIVNSGGLIQVADELYEVNKERVLAKTKHIYDAILEVYQQAELDQITTMEAANRMCEQRMAARGRRNSFFTSSVKPKWDIRN
Consider B1, for which the “activity in the deamination of L-Phe” value in series [1] is 39.5 U mg^−1. Moreover, the “Deamination Activity 40 mM 1,3-DMBA, kcat” value in [2] was “—No Activity—”. In [3], the Km came out at 64.5 mM. Also, the “Amination Activity 40 mM MIBK, kcat” value in [4] is “—No Activity—”. For the same molecule, the “activity in the amination of phenylpyruvate” value in series [5] was “greater than 257 U mg^−1”.

B2: C1-AmDH: chimeric AmDH: F-AmDH substrate binding domain with L-AmDH NAD-binding domain, SEQ ID NO:20 (protein)
chain: SLVEKTSIIKDFTLFEKMSEHEQVVFCNDPATGLRAIIAIHDTTLGPALGGCRMQPYNSVEEALEDALRLSKGMTYSCAASDVDFGGGKAVIIGDPQKDKSPELFRAFGQFVDSLGGRFYTGTDMGTNMEDFIHAMKETNCIVGVPEAYGSSGNPSPATAYGVYRGMKAAAKEAFGSDSLEGKVVAVQGVGNVAYHLCRHLHEEGAKLIVTDINKEAVARAVEEFGAKAVDPNDIYGVECDIFAPCALGGIINDQTIPQLKAKVIAGSALNQLKEPRHGDMIHEMGIVYAPDYVINAGGCINVADELYGYNRERAMKKIEQIYDNIEKVFAIAKRDNIPTYVAADRMAEERIETMRKARSQFLQNGHHILSRRRAR
On to B2, for which the enantioselectivity result in series [6] is “(R)”. For the same molecule, the “activity, (R,S)-adamanylethlamine” value in series [6] (50 mM) is 0.04 U/mg. Also, in series [6] (100 mM), the “activity, (+/−) methylhenzylamine” value is recorded as 0.58 U/mg and the “activity, (R)-methylbenzylamine” value is 0.98 U/mg. For the same molecule, in series [7], the “1,3-phenylbutanedione, U/mg” value was determined as 0.06 U/mg; the “1,3-phenylbutanedione, U/ml” value was found to be 0.3 U/ml; the “3-methyl-1-phenylbutanone, U/mg” value stood at 0.03 U/mg; the “3-methyl-1-phenylbutanone, U/ml” value turned out to be 0.16 U/ml. Moreover, in series [7], the “3-oxo-phenylbutyricacid ethylester, U/mg” value turned out to be 0 U/mg; the “3-oxo-phenylbutyricacid ethylester, U/ml” value is given as 0 U/ml; the “Adamantylmethylketone, U/mg” value is 0.07 U/mg; the “Adamantylmethylketone, U/ml” value was 0 U/ml. Moreover, in series [7], the “Benzophenone, U/mg” value was 0 U/mg; the “Benzophenone, U/ml” value was 0 U/ml; the “a-tetralone, U/mg” value was 0.1 U/mg and 0.1074 U/mg; the “a-tetralone, U/ml” value is 0.58 U/ml. In series [7], the “b-tetralone, U/mg” value is on record as 0 U/mg; the “b-tetralone, U/ml” value came out at 0 U/ml; the “dibenzylketone, U/ml” value is reported as 1.39 U/ml; the “pinacolone, U/mg” value is given as 0.1333 U/mg. Besides, the “pinacolone, U/ml” value in series [7] is listed as 0.72 U/ml. The temperature activity profile result in series [8] was “did not show any decline of activity up to 80 °C”. Further, in [9], the “kcat, Acetophenone” value was 0.24 s⁻¹ and the “kcat, pFPA” value was found to be 1.24 s^−1. In addition, in series [9] (20 mM, 4 M ammonium formate), the “Acetophenone, U/mg” value was 0.3 U/mg and 0.3019 U/mg; the “Acetophenone, U/ml” value is given as 1.63 U/ml; the “pFPA, U/mg” value is 1.7 U/mg and 1.725 U/mg; the “pFPA, U/ml” value was 13.8 U/ml. For the same molecule, the Km in series [9] (read-out: KM, Acetophenone) was 5.2 mM. In series [9] (read-out: KM, pFPA), the Km stood at 1.1 mM. Moreover, in [10] (24 h, 40° C., heptane / 5 M ammonium formate), the “product formation from methylcyclohexanone” value is recorded as “no product”. The “enantiospecificity of product amines” value in [10] (methylbenzylamine and p-fluorophenylproplyamin, chiral GC, organic layer) is “R-specific”. Also, in series [11], the “kcat, NADH” value was 0.92 s⁻¹ and the “kcat, NH3” value turned out to be 1.09 s⁻¹. For the same molecule, the Km in [11] (read-out: KM, NADH) amounted to 0.04 mM. Also, the “T50^30 value” in [12] (4M ammonium formate buffer, 30 min) was determined as 70 C. Moreover, the “temperature at which stable for 30 min” value in series [12] (in PBS) is reported as 50 C.

Usually Km stands for the substrate concentration at which the rate is half of its maximum.
